Measurements taken from patent publication US20190016816A1 (APTEVO RESEARCH AND DEVELOPMENT, published 2019).

Experiments:
human CD137 on cells [1] = target: T1, human CD137 on cells (human, UniProt Q07011 24-255); experiment: flow cytometry, MFI of all CD3+CD8+ cells gated from CD3-stimulated human PBMC
T1 construct: also called 4-1BB; TNFRSF9 (CHO-K1/human CD137 cells)
Procedure: (§1) Following 48 h of incubation with or without CD3, human and cynomolgus PBMC were harvested, pooled, recounted and diluted in FACS buffer (PBS+0.5% BSA, 0.05% NaN₃) to a concentration of 5×10⁶ cells/mL. 50 μL (0.25×10⁶ cells) of cell solution was added to a 96-well FACS staining plate (Falcon #351190). Following 10 min of Fc-blocking in RT using Beriglobin (hIgG, 200 μg/mL), cells were washed in FACS buffer and then incubated for 1 h in 4° C. with 100 μL of the biotinylated ALG.APV-210 or negative control. The antibodies were added in a serial dilution starting either at 5 μg/mL titrating down in a 12 step ⅓ dilution down to 0.0003 μg/mL (exp 1) or 1 μg/mL titrating down in a 12 step ½ dilution down to 0.0005 μg/mL (exp 2). […] Cells were analysed for ALG.APV-210 binding using flow cytometry by gating on viable, single cells expressing CD3 and CD8. MFI values (FMO subtracted) from 2 independent experiments as well as normalized pooled data from 2 experiments and EC₅₀-values were determined and plotted using GraphPad Prism 7, non-linear regression log (agonist) vs. normalized response—variable slope, n=6 donors/group.

human 5T4 on cells [2] = target: T2, human 5T4 on cells (human, UniProt Q13641 32-420); experiment: flow cytometry, CT26-hu5T4^low cells, streptavidin-PE, normalized MFI of 2 pooled experiments
T2 construct: also called TPBG; hu5T4
T2 sequence: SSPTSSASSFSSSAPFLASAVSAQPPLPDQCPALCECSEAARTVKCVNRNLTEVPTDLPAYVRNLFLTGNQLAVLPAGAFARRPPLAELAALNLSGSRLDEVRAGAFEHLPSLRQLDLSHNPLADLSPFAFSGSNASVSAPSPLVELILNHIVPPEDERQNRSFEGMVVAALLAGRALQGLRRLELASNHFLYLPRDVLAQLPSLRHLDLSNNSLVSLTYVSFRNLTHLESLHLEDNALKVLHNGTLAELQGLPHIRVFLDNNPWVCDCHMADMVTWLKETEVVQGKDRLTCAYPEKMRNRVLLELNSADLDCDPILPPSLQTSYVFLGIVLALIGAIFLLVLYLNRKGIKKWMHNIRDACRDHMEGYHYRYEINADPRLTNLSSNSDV
Procedure: (§2) Prior to the FACS staining, all cell lines were characterized for their 5T4 expression levels using a receptor density kit (Quantum Simply Cellular, anti-human IgG, Bangs Laboratories, Inc). Adherent cell lines were cultured according to their supplier's instructions and were harvested from their cell culture flasks using Trypsin/EDTA, counted in R10 medium in a Burker chamber, and diluted in FACS buffer (PBS+0.5% BSA, 0.05% NaN₃) to a concentration of 4×10⁶ cells/mL. 50 μL (0.20×10⁶) of cell solution was added to a 96-well FACS staining plate (Falcon #351190). Cells were incubated for 20 min in 4° C. with 50 μL of the biotinylated ALG.APV-210 (2× final concentration). The antibodies were added in a serial dilution starting at 20 μg/mL titrating down in a 12 step ½ dilution down to 0.010 μg/mL. Following 2× washing with FACS buffer, cells were incubated for 30 min in 4° C. with 100 μL of a secondary antibody (streptavidin-PE, BD #554061, diluted 1/500). […] Cells were analysed for ALG.APV-210 binding using flow cytometry (FACSVerse) by gating on single cells. MFI values (secondary antibody only subtracted) from 1 out of 2 independent experiments, as well as normalized data and EC₅₀-values of pooled data from 2 experiments were determined and plotted using GraphPad Prism 7, non-linear regression log (agonist) vs. normalized response—variable slope.

human 5T4 on cells [3] = target: T2, human 5T4 on cells; experiment: flow cytometry, HT29 cells (endogenous human 5T4), biotinylated ALG.APV-210 + streptavidin-PE, 1 of 2 experiments
Procedure: as §2, with “μg/mL.” for “μg/mL. Following 2× washing with FACS buffer, cells were incubated for 30 min in 4° C. with 100 μL of a secondary antibody (streptavidin-PE, BD #554061, diluted 1/500).”
The binding (EC₅₀) of the biotinylated ALG.APV-210 to 5T4 when expressed on cells, either at endogenous levels on human tumor cells or on cells transfected to express 5T4 was assessed. […]

human CD137 on cells [4] = target: T1, human CD137 on cells; experiment: flow cytometry, CD8 T cells gated from CD3-stimulated human PBMC, biotinylated antibody + streptavidin-APC, exp 2, n=3 donors
Procedure: as §1, with “control.” for “control. The antibodies were added in a serial dilution starting either at 5 μg/mL titrating down in a 12 step ⅓ dilution down to 0.0003 μg/mL (exp 1) or 1 μg/mL titrating down in a 12 step ½ dilution down to 0.0005 μg/mL (exp 2).”
In ELISA tests, the binding of biotinylated ALG.APV-210 to CD137 was similar to that of the non-biotinylated ALG.APV-210 (0.6 nM vs. 0.7 nM). The binding (EC₅₀) of the biotinylated ALG.APV-210 to its immunomodulatory target CD137 when expressed on activated primary human and cynomolgus CD8 T cells from CD3 stimulated PBMC was assessed and compared between the two species as well as to unstimulated cells. […]

T1 sequence (Q07011 24-255 limits assumed): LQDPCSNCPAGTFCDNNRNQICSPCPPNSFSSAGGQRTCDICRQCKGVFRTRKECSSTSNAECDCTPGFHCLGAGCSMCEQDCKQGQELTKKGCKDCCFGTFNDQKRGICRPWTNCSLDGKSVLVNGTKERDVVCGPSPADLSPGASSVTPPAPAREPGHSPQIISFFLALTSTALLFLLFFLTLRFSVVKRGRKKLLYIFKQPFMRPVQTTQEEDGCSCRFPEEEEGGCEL

B1: biotinylated ALG.APV-210 (bispecific antibody)
chain: EVQLLESGGGLVQPGGSLRLSCAASGFTFSHGSMYWVRQAPGKGLEWVSSISSGSGSTYYADSVKGRFTISHDNSKNTLYLQMNSLRAEDTAVYYCARSSYYGSYYSIDYWGQGTLVTVSSGGGGSGGGGSGGGGSGGGGSDIQMTQSPSSLSASVGDRVTITCRASQSISSYLNWYQQKPGKAPKLLIYAASSLQSGVPSRFSGSGSGTDFTLTISSLQPEDFATYYCQQYYDNLPTFGQGTKLEIKEPKSSDKTHTCPPCPAPEAAGAPSVFLFPPKPKDTLMISRTPEVTCVVVDVSHEDPEVKFNWYVDGVEVHNAKTKPREEQYNSTYRVVSVLTVLHQDWLNGKEYKCAVSNKALPAPIEKTISKAKGQPREPQVYTLPPSRDELTKNQVSLTCLVKGFYPSDIAVEWESNGQPENNYKTTPPVLDSDGSFFLYSKLTVDKSRWQQGNVFSCSVMHEALHNHYTQKSLSLSPGSGGGGSGGGGSGGGGSPSEVQLLESGGGLVQPGGSLRLSCAASGFTFSSYAMSWVRQAPGKCLEWVSAISGSGGSTYYADSVKGRFTISRDNSKNTLYLQMNSLRAEDTAVYYCARYYGGYYSAWMDYWGQGTLVTVSSGGGGSGGGGSGGGGSGGGGSDIQMTQSPSSLSASVGDRVTITCRASQSISSFLNWYQQKPGKAPKLLIYAASSLQSGVPSRFSGSGSGTDFTLTISSLQPEDSATYYCQQTYGYLHTFGCGTKLEIKR
notes: also called ALG.APV-210 (biotinylated for FACS detection)
EC50 (human CD137 on cells [1]): 0.235 nM
EC50 (human 5T4 on cells [2]): 11 nM
EC50 (read off the curve) (human 5T4 on cells [3]): ~10 nM
EC50 (read off the curve) (human CD137 on cells [4]): ~0.2 nM
